B1: Enzyme A″: recombinant AADH of G. oxydans DSM No. 4025, amino acid sequence SEQ ID NO 7, plasmid p26C3 (protein)
chain: MKLTTLLQSSAALLVLGTIPALAQTAITDEMLANPPAGEWINYGQNQENYRHSPLTQITADNVGQLQLVWARGMEAGKIQVTPLVHDGVMYLANPGDVIQAIDAATGDLIWEHRRQLPNIATLNSFGEPTRGMALYGTNVYFVSWDNHLVALDTSTGQVVFDVDRGQGTDMVSNSSGPIVANGVIVAGSTCQYSPFGCFVSGHDSATGEELWRNTFIPRAGEEGDETWGNDYEARWMTGVWGQITYDPVGGLVHYGTSAVGPAAEIQRGTVGGSMYGTNTRFAVRPETGEIVWRHQTLPRDNWDQECTFEMMVVNVDVQPSAEMEGLHAINPDAATGERRVVTGVPCKNGTMWQFDAETGEFLWARDTSYQNLIESVDPDGLVHVNEDLVVTELEVAYEICPTFLGGRDWPSAALNPDTGIYFIPLNNACSGMTAVDQEFSSLDVYNVSLDYKLSPGSENMGRIDAIDISTGRTLWSAERYASNYAPVLSTGGGVLFNGGTDRYFRALSQETGETLWQTRLATVASGQAISYEIDGVQYVAIGRGGTSYGSNHNRALTERIDSTAIGSAIYVFALPQQ
modifications: Gluconobacter oxydans; SIGNAL (1)..(23)
B2: Enzyme B: recombinant AADH of G. oxydans DSM No. 4025, amino acid sequence SEQ ID NO 8, plasmid pSS31/pSSB103R (protein)
chain: MNPTTLLRTSAAVLLLTAPAAFAQVTPITDELLANPPAGEWINYGRNQENYRHSPLTQITADNVGQLQLVWARGMEAGAVQVTPMIHDGVMYLANPGDVIQALDAQTGDLIWEHRRQLPAVATLNAQGDRKRGVALYGTSLYFSSWDNHLIALDMETGQVVFDVERGSGEDGLTSNTTGPIVANGVIVAGSTCQYSPYGCFISGHDSATGEELWRNHFIPQPGEEGDETWGNDFEARWMTGVWGQITYDPVTNLVFYGSTGVGPASETQRGTPGGTLYGTNTRFAVRPDTGEIVWRHQTLPRDNWDQECTFEMMVANVDVQPSAEMEGLRAINPNAATGERRVLTGAPCKTGTMWSFDAASGEFLWARDTNYTNMIASIDETGLVTVNEDAVLKELDVEYDVCPTFLGGRDWSSAALNPDTGIYFLPLNNACYDIMAVDQEFSALDVYNTSATAKLAPGFENMGRIDAIDISTGRTLWSAERPAANYSPVLSTAGGVVFNGGTDRYFRALSQETGETLWQARLATVATGQAISYELDGVQYIAIGAGGLTYGTQLNAPLAEAIDSTSVGNAIYVFALPQ
modifications: Gluconobacter oxydans; SIGNAL (1)..(23)

Assays:
[1] = Substrate specificity of purified enzymes, PMS-DCIP spectrophotometric assay; format: biochemical; details: A′ corrected 1.5-fold (purity about 65%)
Experimental: The enzymatic activity of the AADHs herein can be determined by methods known in the art, such as by photometric analysis using a spectrophotometer. In accordance with the present invention, one unit of enzyme activity was defined as the amount of enzyme which catalyzed the reduction of 1 μmole of DCIP per minute. The extinction coefficient of DCIP at pH 8.0 was taken as 15 mM^−1. In a preferred standard assay for determining the enzyme activity of the AADHs herein, a first cuvette includes a standard reaction mixture (1.0 ml) containing 0.1 mM DCIP, 1 mM PMS, 2 to 125 mM substrate, 50 mM Tris-malate-NaOH buffer (pH 8.0), and 10 μl of the enzyme solution. A second cuvette, i.e., a reference cuvette, contains all the above components except the substrate. The reference cuvette is used to standardize the background absorbance resulting from a substrate-independent (endogenous) reaction. Preferably, a double beam spectrophotometer is used to determine the activity of the enzyme in the presence of a substrate with respect to a standard reaction mixture in the absence of the substrate.
Enzyme activities of each clone (cell free extract, soluble fraction and membrane fraction) were measured by photometric analysis. The cells of each clone were inoculated in 5 ml of MB medium in a test tube and cultivated at 30° C. for 24 hours. The resulting broth was transferred into 200 ml of fresh MB medium in 500 ml flask and the flask was shaken on the rotary flask shaker at 30° C. for 24 hours. The cells were collected by centrifugation at 6,000×g for 10 minutes and washed with 40 ml of cold buffer consisting of 50 mM Tris-HCl, pH 7.5, 5 mM MgCl2 and 0.5 mM phenylmethylsulfonyl fluoride and suspended with the same buffer to prepare cell suspension of 1 g wet cells per 5 ml. The cell suspension was subjected twice to a French press cell disruptor (1,500 kg/cm^2) and the resulting homogenate was centrifuged at 6,000×g for 10 minutes to remove cell debris. Thus obtained cell free extract (CFE) was centrifuged at 100,000×g for 60 minutes. The resulting supernatant and pellet were collected as the cytosol fraction and the membrane fraction, respectively and subjected to PMS-DCIP assay as follows. The enzyme reaction mixture (1.0 ml) contained 100 μM DCIP, 1 mM PMS, 50 mM Tris malate-NaOH buffer, pH 8.0, a substrate and the enzyme (10 μl). Substrate-dependent decreasing rate of absorbance of DCIP at 600 nm was measured at 25° C. by using a Kontron spectrophotometer UVIKON 810. […] In the A-group, there were three types, A, A′ and A″ each of which was distinguished from each other by their physical map of the DNA carried on each plasmid. B- or C-group each consisted of only one type of protein derived from one region of the chromosomal DNA.

[2] = Optimal pH, PMS-DCIP assay in buffers of various pH; format: biochemical
Experimental: The Enzymes A″ and B have a relatively wide pH range toward a lower pH, compared with the Enzymes A and A′.
The enzyme activity was assayed by the PMS-DCIP spectrophotometric assay using various pH buffers. The buffers were 50 mM Tris-malate-NaOH, pH 6.0, 6.5, 7.0, 7.5, 8.0 and 8.5; 50 mM glycine-NaOH, pH 9.0 and 9.5. The extinction coefficients of DCIP at pH 6.0, 6.5, 7.0, 7.5, 8.0, 8.5, 9.0 and 9.5 were taken as 10.8, 13.2, 14.5, 14.9, 15.0, 15.1, 15.1 and 15.1, respectively. […] The Enzymes A″ and B had relatively wide pH range toward lower pH, compared with the Enzymes A and A′.

[3] = pH stability, 3 hours at 25° C., residual activity by PMS-DCIP assay; format: physicochemical; details: relative to no incubation at pH 8.0
Experimental: Enzymes A, A′, A″ and B were incubated in buffers of various pH-values for 3 hours at 25° C. and the residual activities were assayed and expressed as relative values against that obtained by no incubation at pH 8.
Table 3 indicates the results of pH-stabilities of the enzymes. The enzyme (about 0.01 mg/ml) was incubated with 50 mM buffer containing 5% sucrose, 0.2 M NaCl, and 5 mM CaCl2 at 25° C. for 3 hours and assayed by PMS-DCIP spectrophotometric method. The buffers were Na-acetate, pH4 and 5, Tris-malate-NaOH, pH 6, 7 and 8, glycine-NaOH, pH 9 and 10. The values in the table are expressed as relative activity against that obtained by no incubation at pH 8.0.

[4] = Oxidation product of AADH clones by resting cell reaction followed by TLC analysis; format: cell-based, P. putida
Excerpt: Enzyme A gene was originally cloned as a cosmid clone of p24D4 which has about 25 kb insert in EcoRI site of pVK100. Then, it was further subcloned to use as an Enzyme A gene cassette. The 2.7 kb EcoRV fragment which includes ORF of Enzyme A gene with about 500 bp of non-coding regions at the both ends was excised from 3.4 kb NruI fragment, which was isolated from p24D4 in M13 mp18, and was ligated to HindIII site of pUC18 with HindIII linker ([…]). The resulting plasmid was designated pSSA202. Enzyme A gene cassette (2.7 kb HindIII fragment) was then inserted at HindIII site of pVK102 to produce pSSA102R. The plasmid pSSA102R was introduced into nalidixic acid resistant P. putida [ATCC 21812] by a conjugal mating method as described in Example 1-(1). The transconjugant of P. putida carrying pSSA102R was selected on MB agar medium containing 50 μg/ml nalidixic acid and 10 μg/ml tetracycline (MNT agar medium) and subjected to a mini-resting cell reaction. […] The reaction mixture was assayed with TLC and 2KGA was identified as the product, while no 2KGA was observed by the same resting cell reaction with the host, nalidixic acid resistant P. putida [ATCC 21812].

Molecule | Substrate specificity ([1]; 2 mM L-Sorbosone) | Substrate specificity ([1]; 50 mM D-Glucose) | Substrate specificity ([1]; 50 mM D-Mannitol) | Substrate specificity ([1]; 50 mM Isopropanol) | Substrate specificity ([1]; 50 mM n-Propanol) | Substrate specificity ([1]; 125 mM D-Fructose) | Substrate specificity ([1]; 125 mM D-Sorbitol) | Substrate specificity ([1]; 125 mM L-Sorbose) | Relative activity (optimal pH) ([2]; assay pH 6.0, pH 8.0 = 100) [%] | Relative activity (optimal pH) ([2]; assay pH 6.5, pH 8.0 = 100) [%] | Relative activity (optimal pH) ([2]; assay pH 7.0, pH 8.0 = 100) [%] | Relative activity (optimal pH) ([2]; assay pH 7.5, pH 8.0 = 100) [%] | Relative activity (optimal pH) ([2]; assay pH 8.0) [%] | Relative activity (optimal pH) ([2]; assay pH 8.5, pH 8.0 = 100) [%] | Relative activity (optimal pH) ([2]; assay pH 9.0, pH 8.0 = 100) [%] | Relative activity (optimal pH) ([2]; assay pH 9.5, pH 8.0 = 100) [%] | Relative activity (pH stability) ([3]; incubated at pH 4.0, 3 hours) [%] | Relative activity (pH stability) ([3]; incubated at pH 5.0, 3 hours) [%] | Relative activity (pH stability) ([3]; incubated at pH 6.0, 3 hours) [%] | Relative activity (pH stability) ([3]; incubated at pH 7.0, 3 hours) [%] | other results
B1 | 26.5 units/mg of purified protein | 17.8 units/mg of purified protein | 6.2 units/mg of purified protein | 154.9 units/mg of purified protein | 262.3 units/mg of purified protein | 17.3 units/mg of purified protein | 30.1 units/mg of purified protein | 30.3 units/mg of purified protein | 35.0 | 57.3 | 74.8 | 90.0 | 100.0 | 85.6 | 46.5 | 23.9 | 6.2 | 77.9 | 105.8 | 100.9 | Relative activity (pH stability) ([3]; incubated at pH 8.0, 3 hours): 99.0%; Relative activity (pH stability) ([3]; incubated at pH 9.0, 3 hours): 100.9%; Relative activity (pH stability) ([3]; incubated at pH 10.0, 3 hours): 104.0%; Relative activity (pH stability) ([3]; incubated at pH 11.0, 3 hours): 79.2%; Oxidation product of D-sorbitol [4]: mainly D-glucose; Oxidation product of L-sorbose [4]: *1Oxidation product of L-sorbose by Enzymes A, A′, A″, and [A and B] was 2KGA.; Oxidation product of L-sorbosone [4]: *4Oxidation product of L-sorbosone by Enzymes A, A′, A″, B, and [A and B] was 2KGA.
B2 | 73.6 units/mg of purified protein | 943.9 units/mg of purified protein | 517.4 units/mg of purified protein | 72.3 units/mg of purified protein | 40.0 units/mg of purified protein | 2.1 units/mg of purified protein | 130.9 units/mg of purified protein | 8.4 units/mg of purified protein | 21.0 | 51.6 | 61.6 | 75.3 | 100.0 | 62.2 | 8.0 | 0.0 | 25.2 | 56.1 | 100.9 | 101.9 | Relative activity (pH stability) ([3]; incubated at pH 8.0, 3 hours): 114.0%; Relative activity (pH stability) ([3]; incubated at pH 9.0, 3 hours): 101.9%; Relative activity (pH stability) ([3]; incubated at pH 10.0, 3 hours): 85.5%; Relative activity (pH stability) ([3]; incubated at pH 11.0, 3 hours): 70.1%; Oxidation product of D-glucose [4]: *2Oxidation product of D-glucose by Enzyme B, and Enzyems [A and B] was D-gluconic acid.; Oxidation product of D-sorbitol [4]: L-sorbose; Oxidation product of L-sorbosone [4]: *4Oxidation product of L-sorbosone by Enzymes A, A′, A″, B, and [A and B] was 2KGA.

From US6730503B1 (Roche Vitamins Inc., priority 1996, dated 2004)
